Assay results taken from publication PMC4782999, “The Inhibitory Effect of Non-Substrate and Substrate DNA on the Ligation and Self-Adenylylation Reactions Catalyzed by T4 DNA Ligase”.

T1: T4 DNA ligase (UniProt P00970 1-487)
T1 sequence: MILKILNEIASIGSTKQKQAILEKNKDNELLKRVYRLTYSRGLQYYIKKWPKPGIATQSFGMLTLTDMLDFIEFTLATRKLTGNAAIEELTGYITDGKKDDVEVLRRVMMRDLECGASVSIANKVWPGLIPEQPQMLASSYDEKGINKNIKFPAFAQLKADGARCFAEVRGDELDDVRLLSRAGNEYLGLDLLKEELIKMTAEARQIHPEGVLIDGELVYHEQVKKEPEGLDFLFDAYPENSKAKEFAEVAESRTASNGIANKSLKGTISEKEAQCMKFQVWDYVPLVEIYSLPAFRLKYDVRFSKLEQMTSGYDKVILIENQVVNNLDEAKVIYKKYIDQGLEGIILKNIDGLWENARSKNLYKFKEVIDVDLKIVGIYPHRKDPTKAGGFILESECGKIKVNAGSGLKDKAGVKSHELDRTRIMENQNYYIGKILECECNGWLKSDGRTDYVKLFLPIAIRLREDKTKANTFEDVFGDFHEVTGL


Assays:
Conditions in all cases: protein: commercial; blunt, no nick
T4 DNA ligase [1] = target: T1, T4 DNA ligase; assay: competition (nick-ligation inhibition, competitive fit); 1 mM ATP, 10 mM Mg2+; EMSA: 50 mM Tris pH 7.5, 5 mM DTT, 5 mM Mg2+, 1 mM sodium pyrophosphate, 5% glycerol, room temperature (22 C), 20 min; ligation competition: 50 mM Tris-HCl pH 7.5, 1 mM ATP, 10 mM MgCl2, 10 mM DTT, 16 C
T4 DNA ligase [2] = target: T1, T4 DNA ligase; assay: competition (nick-ligation inhibition); Ki x N sites; per binding site, N=34, assumed 24 bp footprint; derived from the Ki; EMSA: 50 mM Tris pH 7.5, 5 mM DTT, 5 mM Mg2+, 1 mM sodium pyrophosphate, 5% glycerol, room temperature (22 C), 20 min; ligation competition: 50 mM Tris-HCl pH 7.5, 1 mM ATP, 10 mM MgCl2, 10 mM DTT, 16 C
T4 DNA ligase [3] = target: T1, T4 DNA ligase; assay: competition (nick-ligation inhibition, competitive fit); 20 nM FAM-labeled nicked substrate, 25 pM ligase, 1 mM ATP, 10 mM Mg2+, 16 C; EMSA: 50 mM Tris pH 7.5, 5 mM DTT, 5 mM Mg2+, 1 mM sodium pyrophosphate, 5% glycerol, room temperature (22 C), 20 min; ligation competition: 50 mM Tris-HCl pH 7.5, 1 mM ATP, 10 mM MgCl2, 10 mM DTT, 16 C
T4 DNA ligase [4] = target: T1, T4 DNA ligase; assay: competition (nick-ligation inhibition); Ki x N sites; per binding site, N~100, assumed 24 bp footprint; derived from the Ki; EMSA: 50 mM Tris pH 7.5, 5 mM DTT, 5 mM Mg2+, 1 mM sodium pyrophosphate, 5% glycerol, room temperature (22 C), 20 min; ligation competition: 50 mM Tris-HCl pH 7.5, 1 mM ATP, 10 mM MgCl2, 10 mM DTT, 16 C

Binder	Ki (T4 DNA ligase [1]) [µM]	Kd (T4 DNA ligase [2]) [µM]	Ki (T4 DNA ligase [3]) [µM]	Kd (T4 DNA ligase [4]) [µM]
I-40-dsDNA (dsDNA) DNA 1: CACATATGAGAAGGTATTTGCCCGATAATCAATACTCCAG DNA 2: CTGGAGTATTGATTATCGGGCAAATACCTTCTCATATGTG	0.2 ± 0.03	7 ± 1	–	–
I-75-dsDNA (dsDNA) DNA 1: AGAGAAGATGACTACTGAGTTGTGCGATCCCTGCACTTCAGCTAAGGAAGCTACCAATATTTAGTTTCCGAGTCT DNA 2: AGACTCGGAAACTAAATATTGGTAGCTTCCTTAGCTGAAGTGCAGGGATCGCACAACTCAGTAGTCATCTTCTCT	–	–	0.1 ± 0.02	10 ± 2
